In patent US20220348675A1 (I MAB BIOPHARMA US, published 2022):

Experiments:
[1] = biological target: 4-1BB expressed on cells (HEK293-4-1BB, 4-1BB-Jurkat, GloResponse NFκB-luc2/4-1BB Jurkat) (UniProt Q07011); test: Flow cytometry on HEK293-4-1BB cells, PE anti-human IgG, MFI
human 4-1BB-His protein = biological target: T1, human 4-1BB-His protein (human, UniProt Q07011 24-186); test: ELISA, coated human 4-1BB-His, detection with anti-human IgG-HRP, OD450
T1 construct: not shown: His tag

[2] = biological target: human 4-1BB-biotin protein (human, UniProt Q07011 24-186, limits assumed); test: Dual antigen capture ELISA: coated CLDN18.2 VLP, antibody titrated, then human 4-1BB-biotin at 1 ug/ml and streptavidin-HRP, OD450
[3] = biological target: T2, 4-1BB expressed on cells (HEK293-4-1BB, 4-1BB-Jurkat, GloResponse NFκB-luc2/4-1BB Jurkat) (UniProt Q07011 24-255, limits assumed); test: Flow cytometry on HEK293-4-1BB cells, PE anti-human IgG, MFI
T2 construct: whole, on cells; also called HEK293 expressed 4-1BB; HEK293-4-1BB cells
Procedure: To evaluate the antigen binding property, the anti-CLDN18.2-4-1BB antibodies were analyzed for their binding to HEK293 expressed 4-1BB by FACS. A total number of 1×10⁵ HEK293-4-1BB cells in each well were incubated with serial diluted antibodies for 30 minutes at 4° C. in FACS buffer (2% FBS in PBS). After wash by FACS buffer, PE conjugated-anti-human IgG antibody was added to each well and incubated at 4° C. for 30 minutes. After wash, MFI of PE was evaluated by FACS Caliber.

human 4-1BB-Fc protein = biological target: T3, human 4-1BB-Fc protein (human, UniProt Q07011 24-186); test: ELISA, coated human 4-1BB-Fc
T3 construct: not shown: Fc part
T3 sequence (Q07011 24-186 limits assumed): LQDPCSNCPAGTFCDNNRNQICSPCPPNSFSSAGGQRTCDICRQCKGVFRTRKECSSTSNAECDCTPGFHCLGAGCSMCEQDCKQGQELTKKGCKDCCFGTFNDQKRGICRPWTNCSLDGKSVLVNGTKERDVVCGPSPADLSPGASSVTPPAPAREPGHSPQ

T1 sequence (Q07011 24-186 limits assumed): as above
Chain of human 4-1BB-biotin protein (Q07011 24-186 limits assumed): as above
T2 sequence (Q07011 24-255 limits assumed): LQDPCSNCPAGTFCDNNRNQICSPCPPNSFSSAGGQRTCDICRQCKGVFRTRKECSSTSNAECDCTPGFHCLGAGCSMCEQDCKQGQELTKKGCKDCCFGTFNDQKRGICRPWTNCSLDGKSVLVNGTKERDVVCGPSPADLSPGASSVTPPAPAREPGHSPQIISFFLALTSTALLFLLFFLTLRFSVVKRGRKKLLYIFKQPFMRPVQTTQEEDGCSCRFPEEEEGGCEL
Chain of 4-1BB expressed on cells (HEK293-4-1BB, 4-1BB-Jurkat, GloResponse NFκB-luc2/4-1BB Jurkat) (UniProt Q07011) (Q07011 24-255 limits assumed): as above

urelumab (BMUR) anti-4-1BB monoclonal antibody
EC50 (read off the curve) [1]: 0.06 nM | EC50 (read off the curve) (human 4-1BB-His protein): 0.6 nM

B1: 72C1B6A3 anti-CLDN18.2 monoclonal antibody (antibody, V domains shown)
VH: QVQLVQSGAEVKKPGASVKVSCKASGYTFTTYPIEWVRQAPGQRLEWMGNFHPYNDDTKYNEKFKGRVTITRDTSASTAYMELSSLRSEDTAVYYCARRAYGYPYAMDYWGQGTLVTVSS
VL: DIVMTQSPDSLAVSLGERATINCKSSQSLLNAGNQKNYLTWYQQKPGQPPKLLIYRASSRESGVPDRFSGSGSGTDFTLTISSLQAEDVAVYYCQNDYIYPYTFGGGTKLEIK
notes: also called CLDN18.2 mAb 72C1B6A3
binding result [2]: no binding (tested: 100 nM)

B2: 1A10 anti-4-1BB monoclonal antibody (antibody, V domains shown)
VH: EVQLLESGGGLVQPGGSLRLSCAASGFTFSSYDMSWVRQAPGKGLEWVSWISYSGGSIYYADSVKGRFTISRDNSKNTLYLQMNSLRAEDTAVYYCARDAQRNSMREFDYWGQGTLVTVSS
VL: QSVLTQPPSASGTPGQRVTISCSGSSSNIGNNYVTWYQQLPGTAPKLLIYADSHRPSGVPDRFSGSKSGTSASLAISGLRSEDEADYYCATWDYSLSGYVFGGGTKLTVL
EC50 (read off the curve) [3]: ~0.2 nM | EC50 (read off the curve) (human 4-1BB-His protein): ~0.5 nM

B3: 41B01.02 anti-4-1BB antibody (antibody, V domains shown)
VH: EVQLLESGGGLVQPGGSLRLSCAASGFTFSSYDMSWVRQAPGKGLEWVSWISYSGGSIYYADSVKGRFTISRDNSKNTLYLQMNSLRAEDTAVYYCARDAQRQSMREFDYWGQGTLVTVSS
VL: QSVLTQPPSASGTPGRRVTISCSGSSSNIGNNYVTWYQQLPGTAPKLLIYADSHRPSGVPDRFSGSKSGTSASLAISGLRSEDEADYYCATWDYSLSGYVFGGGTKLTVL
notes: Full human anti-4-1BB antibody
binding result (human 4-1BB-Fc protein): binds
